Assay results as given in article PMC7998035.

Legend:
Experiment in all cases: ELISA; ECM protein coated on the plate (100 nM in PBS, 1 h, 37 °C), blocked with 1% BSA in PBS-T; IL-1Ra or PDGF-BB variants at 0 to 100 nM in PBS-T with 0.1% BSA, 1 h, room temperature; bound protein detected with biotinylated antibodies (DuoSet); specific binding fitted with a one site-specific binding model; means of 3 independent experiments
[1] = target: human tenascin C (human) (UniProt P24821)
[2] = target: human vitronectin (human) (UniProt P04004)
Chain of human vitronectin (human) (P04004 20-478): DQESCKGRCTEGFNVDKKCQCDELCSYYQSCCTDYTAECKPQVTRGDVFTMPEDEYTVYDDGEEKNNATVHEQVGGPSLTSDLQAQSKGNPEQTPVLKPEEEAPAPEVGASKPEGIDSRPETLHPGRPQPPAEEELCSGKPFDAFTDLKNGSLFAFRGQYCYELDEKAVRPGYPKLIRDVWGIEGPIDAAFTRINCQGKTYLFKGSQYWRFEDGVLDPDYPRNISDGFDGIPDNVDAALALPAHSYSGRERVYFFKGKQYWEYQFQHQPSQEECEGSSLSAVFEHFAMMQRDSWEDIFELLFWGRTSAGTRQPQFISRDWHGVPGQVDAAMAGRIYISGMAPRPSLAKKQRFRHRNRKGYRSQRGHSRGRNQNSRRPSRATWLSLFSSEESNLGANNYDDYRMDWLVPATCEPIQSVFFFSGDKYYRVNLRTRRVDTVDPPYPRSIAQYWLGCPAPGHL

[3] = target: human plasma fibronectin (human)
Chain of human plasma fibronectin (human) (P02751 other isoform, or with tags, fused parts or gaps): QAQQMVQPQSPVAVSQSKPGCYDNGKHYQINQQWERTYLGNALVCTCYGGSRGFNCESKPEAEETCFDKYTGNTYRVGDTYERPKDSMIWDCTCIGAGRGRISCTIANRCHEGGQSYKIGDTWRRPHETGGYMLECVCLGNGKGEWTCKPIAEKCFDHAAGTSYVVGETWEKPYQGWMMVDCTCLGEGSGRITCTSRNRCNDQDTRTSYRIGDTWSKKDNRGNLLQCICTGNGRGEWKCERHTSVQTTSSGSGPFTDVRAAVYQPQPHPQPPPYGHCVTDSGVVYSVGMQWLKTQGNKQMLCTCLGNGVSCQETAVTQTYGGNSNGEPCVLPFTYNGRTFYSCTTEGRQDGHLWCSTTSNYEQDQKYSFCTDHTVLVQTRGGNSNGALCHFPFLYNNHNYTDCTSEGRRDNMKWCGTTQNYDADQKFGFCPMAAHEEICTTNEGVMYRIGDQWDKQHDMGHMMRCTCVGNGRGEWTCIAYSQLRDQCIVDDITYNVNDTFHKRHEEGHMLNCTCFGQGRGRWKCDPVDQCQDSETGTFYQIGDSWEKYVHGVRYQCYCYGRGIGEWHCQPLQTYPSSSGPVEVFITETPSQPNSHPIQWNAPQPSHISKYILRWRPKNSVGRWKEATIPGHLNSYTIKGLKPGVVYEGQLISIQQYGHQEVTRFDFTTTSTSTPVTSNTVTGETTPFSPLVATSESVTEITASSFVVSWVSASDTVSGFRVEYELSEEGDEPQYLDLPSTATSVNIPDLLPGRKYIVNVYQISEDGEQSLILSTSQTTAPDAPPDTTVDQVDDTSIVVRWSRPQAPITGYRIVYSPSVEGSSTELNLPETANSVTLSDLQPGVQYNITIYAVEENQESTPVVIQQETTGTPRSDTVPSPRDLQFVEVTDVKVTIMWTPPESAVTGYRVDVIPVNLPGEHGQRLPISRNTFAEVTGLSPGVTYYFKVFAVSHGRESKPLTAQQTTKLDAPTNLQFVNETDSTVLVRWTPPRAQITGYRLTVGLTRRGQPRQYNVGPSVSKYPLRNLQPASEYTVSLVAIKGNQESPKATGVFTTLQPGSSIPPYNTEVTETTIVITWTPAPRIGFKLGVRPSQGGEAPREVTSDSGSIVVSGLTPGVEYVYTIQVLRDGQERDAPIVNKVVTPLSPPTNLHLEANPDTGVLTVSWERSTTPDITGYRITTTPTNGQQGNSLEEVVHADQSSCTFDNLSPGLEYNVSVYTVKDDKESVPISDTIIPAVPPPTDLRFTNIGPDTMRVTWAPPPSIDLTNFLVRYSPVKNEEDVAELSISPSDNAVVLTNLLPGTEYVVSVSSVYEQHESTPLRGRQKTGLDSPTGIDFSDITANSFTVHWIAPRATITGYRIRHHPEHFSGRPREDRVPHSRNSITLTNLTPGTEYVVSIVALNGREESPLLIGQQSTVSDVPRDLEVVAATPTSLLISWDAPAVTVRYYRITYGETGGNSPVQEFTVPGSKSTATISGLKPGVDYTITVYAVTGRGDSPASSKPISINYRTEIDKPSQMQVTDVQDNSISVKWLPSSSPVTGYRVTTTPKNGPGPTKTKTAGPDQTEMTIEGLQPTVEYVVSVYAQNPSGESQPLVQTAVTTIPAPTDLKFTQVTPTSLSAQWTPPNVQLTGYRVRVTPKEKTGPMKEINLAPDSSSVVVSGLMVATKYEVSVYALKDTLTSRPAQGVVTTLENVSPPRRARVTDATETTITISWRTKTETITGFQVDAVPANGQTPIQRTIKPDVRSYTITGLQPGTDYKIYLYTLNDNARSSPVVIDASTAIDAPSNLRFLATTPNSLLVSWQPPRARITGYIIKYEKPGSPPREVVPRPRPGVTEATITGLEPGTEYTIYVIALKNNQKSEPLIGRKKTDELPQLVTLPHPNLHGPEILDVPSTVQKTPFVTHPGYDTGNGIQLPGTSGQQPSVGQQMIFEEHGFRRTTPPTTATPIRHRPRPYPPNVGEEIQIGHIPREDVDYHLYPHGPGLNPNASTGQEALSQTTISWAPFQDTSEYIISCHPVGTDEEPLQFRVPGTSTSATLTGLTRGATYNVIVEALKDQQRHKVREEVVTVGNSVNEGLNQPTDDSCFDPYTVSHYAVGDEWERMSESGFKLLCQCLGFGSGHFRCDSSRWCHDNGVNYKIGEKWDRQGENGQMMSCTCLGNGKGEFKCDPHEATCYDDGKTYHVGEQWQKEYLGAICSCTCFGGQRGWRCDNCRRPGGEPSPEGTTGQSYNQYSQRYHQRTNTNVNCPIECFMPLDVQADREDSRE

Chain of human tenascin C (human) (P24821 23-2201): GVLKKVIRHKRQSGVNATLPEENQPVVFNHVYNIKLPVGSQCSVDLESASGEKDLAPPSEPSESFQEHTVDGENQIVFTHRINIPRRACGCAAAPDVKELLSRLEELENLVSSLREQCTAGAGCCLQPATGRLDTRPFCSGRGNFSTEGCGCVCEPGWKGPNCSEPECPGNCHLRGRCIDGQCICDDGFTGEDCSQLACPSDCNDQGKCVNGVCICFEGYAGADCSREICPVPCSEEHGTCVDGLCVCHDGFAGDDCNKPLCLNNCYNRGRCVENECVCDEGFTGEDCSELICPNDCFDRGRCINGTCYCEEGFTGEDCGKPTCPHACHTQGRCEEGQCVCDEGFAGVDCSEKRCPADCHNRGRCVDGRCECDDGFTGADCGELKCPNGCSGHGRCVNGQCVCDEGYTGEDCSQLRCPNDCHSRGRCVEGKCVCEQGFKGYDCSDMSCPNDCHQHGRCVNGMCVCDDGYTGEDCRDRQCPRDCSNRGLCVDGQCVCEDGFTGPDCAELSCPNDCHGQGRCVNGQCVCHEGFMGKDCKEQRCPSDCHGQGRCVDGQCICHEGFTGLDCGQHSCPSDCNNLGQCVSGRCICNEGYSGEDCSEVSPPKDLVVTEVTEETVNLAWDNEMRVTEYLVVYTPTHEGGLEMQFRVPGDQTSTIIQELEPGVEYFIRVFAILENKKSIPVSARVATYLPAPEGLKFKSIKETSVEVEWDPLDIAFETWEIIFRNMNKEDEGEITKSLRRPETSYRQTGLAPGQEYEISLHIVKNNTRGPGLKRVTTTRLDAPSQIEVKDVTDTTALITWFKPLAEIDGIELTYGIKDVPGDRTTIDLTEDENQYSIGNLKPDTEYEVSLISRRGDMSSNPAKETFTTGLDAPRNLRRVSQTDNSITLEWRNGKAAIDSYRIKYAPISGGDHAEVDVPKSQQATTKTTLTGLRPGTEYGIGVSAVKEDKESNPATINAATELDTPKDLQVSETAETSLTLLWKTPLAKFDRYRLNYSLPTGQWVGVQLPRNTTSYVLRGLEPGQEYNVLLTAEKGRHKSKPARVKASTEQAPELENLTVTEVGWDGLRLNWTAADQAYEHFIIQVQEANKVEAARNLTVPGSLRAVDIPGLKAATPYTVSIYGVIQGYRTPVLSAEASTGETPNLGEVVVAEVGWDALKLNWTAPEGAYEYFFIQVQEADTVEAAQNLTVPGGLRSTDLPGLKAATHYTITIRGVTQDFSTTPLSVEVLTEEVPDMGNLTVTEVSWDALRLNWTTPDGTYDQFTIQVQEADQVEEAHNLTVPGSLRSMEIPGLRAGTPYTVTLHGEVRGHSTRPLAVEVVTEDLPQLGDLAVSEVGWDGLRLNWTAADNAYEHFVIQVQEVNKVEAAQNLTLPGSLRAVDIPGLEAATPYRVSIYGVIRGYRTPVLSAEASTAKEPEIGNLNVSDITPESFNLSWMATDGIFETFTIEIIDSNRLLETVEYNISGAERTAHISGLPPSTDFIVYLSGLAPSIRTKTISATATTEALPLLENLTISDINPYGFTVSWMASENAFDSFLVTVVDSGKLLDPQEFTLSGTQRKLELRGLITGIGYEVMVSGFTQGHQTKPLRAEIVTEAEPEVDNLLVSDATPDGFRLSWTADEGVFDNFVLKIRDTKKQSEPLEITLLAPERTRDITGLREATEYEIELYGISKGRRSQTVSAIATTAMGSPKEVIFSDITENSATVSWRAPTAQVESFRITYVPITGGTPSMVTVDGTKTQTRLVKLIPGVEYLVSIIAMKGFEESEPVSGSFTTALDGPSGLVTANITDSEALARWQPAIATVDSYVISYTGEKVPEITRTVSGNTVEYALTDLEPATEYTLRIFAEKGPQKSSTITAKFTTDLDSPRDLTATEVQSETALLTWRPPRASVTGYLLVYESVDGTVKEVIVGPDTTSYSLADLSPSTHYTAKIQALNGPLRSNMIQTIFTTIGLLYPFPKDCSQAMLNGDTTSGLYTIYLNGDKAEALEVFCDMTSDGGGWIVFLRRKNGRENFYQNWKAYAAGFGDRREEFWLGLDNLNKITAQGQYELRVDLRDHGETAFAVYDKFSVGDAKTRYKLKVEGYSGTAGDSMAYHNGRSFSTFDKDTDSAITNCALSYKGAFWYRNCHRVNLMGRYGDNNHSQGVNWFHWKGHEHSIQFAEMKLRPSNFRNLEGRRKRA

| Kd [1] | Kd [2] | Kd [3] | Substance |
| --- | --- | --- | --- |
| 0.0203 µM | 0.0007 µM |  | IL-1Ra/PlGF123-141 |
|  |  | 0.0219 µM | IL-1Ra/PlGF123-141 (other; other documents disagree on this pair) |
| 0.025 µM | 0.0014 µM |  | PDGF-BB/PlGF123-141 |
|  |  | 0.0177 µM | PDGF-BB/PlGF123-141 (other; other documents disagree on this pair) |
